B1: C19orf51 (parent)
chain: FAPQTGARPSETFARFCKSQESAL
B2: MLL5 (parent)
chain: HDDGYMICCDKCSVWQHIDCMGID

Variants of: B1
Experiment: protein stability index of a GFP-peptide fusion (GPS, HEK-293T) (PSI 1-6); higher = more stable
Conditions: c terminus: a fixed tail appended
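Further: lentivirally expressed fusions sorted by FACS into six bins by GFP to DsRed ratio, PSI derived from sequencing read proportions per bin multiplied by bin number.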

Protein stability index: each site, then its substitutions
R15: L 2.84, N 3.83, K 2.48, Q 1.16, H 1.69, I 2.75, T 2.14, C 3.88, G 2.37
C17: I 2.98, V 2.31, L 1.42, H 1.2, P 1.9, S 1.74, A 2.9, M 3.12, W 3, D 1.68, Y 2.92, Q 1.35, E 1.09, G 3.94, N 2.79
R8: D 2.13, S 2.38, Q 1.59, G 1.94, H 2.88, V 2.1, Y 1.81, T 1.89, E 2.65, M 1.87, A 2.93, I 1.71, K 2.84, L 3.45, W 2.52, P 2.83
F13: R 1.94, E 1.98, T 1.82, L 2.54, K 2.31, S 1.41, N 2.49, P 1.07, A 1.89, Y 1.49, M 1.92, D 1.86, H 1.48, V 2.92, C 3.95, Q 2.12, G 2, I 1.7
A23: N 3.57, R 3.52, M 2.11, G 2.32, V 1.68, F 2.44, Q 1.82, C 1.55, W 2.29, P 2.46, L 2.84, T 2.07, H 3.08, I 1.89, K 1.75
S19: R 5.04, P 1.77, K 2.35, N 1.31, T 1.66, A 2.85, H 4.27, D 2.2, G 2.82, E 1.1, C 3.45, W 1.75, Q 1.43, I 2.35
A7: M 1.77, Q 1.31, T 2.69, K 1.53, I 1.79, L 2, P 2.07

Variants of: B2
Experiment: as above
Conditions: c terminus: a fixed tail appended

Protein stability index of substitutions, site by site:
H1: K 2.95, I 1.98, R 2.29, S 2.81, P 1.86, W 2.63, N 2.73, D 2.83, T 2.19, A 2.42, G 2.25, Y 3.85, C 2.1, F 1.66, E 2.5, M 1.57, Q 2.24, V 2.61, L 2.47
G4: M 1.74, H 2.29, L 1.64, R 2.73, I 1.51, C 2.53, Q 2.2, T 2.04, A 2.04, D 2.61, P 2.69, E 2.99, N 2.05, K 2.16, F 1.94, S 2.38
D2: Y 1.93, R 2.02, N 1.71, F 2.23, A 1.76, C 1.89, T 2.99, W 1.84, G 2.05, Q 2.04, L 3.26, K 2.69, S 2.16, P 2.16, M 1.92, H 2.87, V 2.02, I 2.87, E 2.53
D3: Q 2.43, N 2.09, Y 1.91, A 2.13, T 2.41, I 1.63, L 1.01, H 2.01, E 2.95, F 1.53, S 1.69, P 2.65, M 1.69, V 2.75, G 2.47, R 2.02, W 1.88, K 1.88, C 2.06

Reference: the supplement of paper PMC10567573
